These results are taken from the domain aggregation screens of Martell et al. (2025).
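Note: 20 min heating vs room temperature control held 20 min.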

The data set can be described thus: soluble fraction after stress (log2 fold change); higher = more stays soluble; pooled small domains, quantitative proteomics. The conditions noted are these: stress: 75 degC.
For the sequence “HMKQISQNIHRLRKEKGMSQEQLAQALHVTRQTVSAWERGIAQPSLDVLGQIAQLLGVEPERLLYGE”, the “soluble fraction (log2)” value worked out at 0.288.
As to “HMKQLQIPYSFAKRHGVLLRYEGDQAFIVRRDNTSMLALQEARRLLGHPAHYLLYSEQEFNQLLSASFA”, the “soluble fraction (log2)” value is -2.69.
As for “HMKQLVVVPRVVSLSEGKAREDVGDRGLVVDRVEMDTLRTPYENTVTRQEPAADSRVPVGTRVTLWISPGV”, the “soluble fraction (log2)” value was 0.567.
As for “HMKQNSDDGEIRKIIIEILDNNLDNVNKYKSGRTNVLDFFVGQVMKQTRGQANPELTRSILTEELSN”, the “soluble fraction (log2)” value is -0.169.
Take “HMKQQTRAELLDEFAKAHAERGLYFNRDYEQGEIQALQPDKAREYLQSALEARTERQQASEQDR”: the “soluble fraction (log2)” value amounted to 0.262.
The same measure for “HMKQTDQELAEMLRFRAAQRGLLMSDEVVNYVMTRVERSAKSLIMLLDRIDRAALAQARPVTIPLINEL”: -0.523.
The same measure for “HMKQVEVPRLVGLTLREAQAVLGQVGLRIGLISRAALLASPREQIVEQIPVAGERNIATPYVNLLVNVP”: -0.895; for “HMKRDEYIAQLKKYLKRLPKKEYDSAIEYFTEYFDEAGPERELEVIQELGQPKEAAKEMLLQLLNE”: -0.105; for “HMKRDNETRRRIVAAAEELFRAKGLDGVNMRELAEMAGVNKGLLHYYFKTKQALFREILVGQMAL”: -1.31.
Turning to “HMKRDRLYGITIYLLNHGRTSAKTLAEYFEVSVRTIQRDMDALSMAKIPIIAYPGSDGGYEIQEGYRL”, the “soluble fraction (log2)” value is -3.03.
Consider “HMKRDYELPAFIETYLKKNHVAIDTKSAAMIAEHIGADLSRLISELDKVMISLPDDDRRVTPDVVEREI”, for which the “soluble fraction (log2)” value was -0.0791.
The result for “HMKREETLKALATKNANYVARSGRRYSFEPMNPYERRIIHTAVQEIEGVTSRSIGSGMDRRVLIEPEGGV” reads -0.322; that for “HMKRELFVEPGMRLEHTPSKTSGPVVSFIEGVIVVIKDQLGSEHRFDPVPGFFRHEGDLVALRSPLL”, -0.996.
The result for “HMKRIDTILETFAKVHKHIPSKLILLGDGPELLDMRKIARSLHIEDDVLFLGKQDQVSKFYQMADLVLLL” reads -0.314; that for “HMKRIHLSDEEKTDLESLHYSSNDGKQRDRIKAVLLRSEGWTVPMISQALRIHETTVTRYLNDYREGKLKN”, -0.724.
“HMKRITKKELKQAIVDVFADKPGQSFNYKQLATIIGIKDDPTRRMITDILYELVQEERIVELYRGKFKMEM”: the “soluble fraction (log2)” value is -2.58.
The same measure for “HMKRLPFSFAKRFGVVVEDGEPPIVHHRDGASAETLLEVRRRLGQVFTLQRHDAEAFERLLTQAYQR”: -1.15; for “HMKRPEPESPEAERRSQRAADWLVRRDRGLTAAEQDEFLQWLAIDPRHGEWFALHRSVVGEFSA”: -0.081.
With “HMKRQDFEFLVNLLRQNAGWDFDEEQYFVVDKKISNFIREKGYASVEDLIDELKVGAKPLISQVVESLAL”, the “soluble fraction (log2)” value was -0.576.
Consider “HMKRTFGEISPLPSGRYRARYRGPDGERYPAPVTFLSRMDAETWLSAQARKVSSGDWTPPVGVVA”, for which the “soluble fraction (log2)” value is -0.34.
With “HMKRWHVGDPIDALTAAGKVPSWSTIRQRFWKTIAALYPDIEQSERLQRGLAMLDEAGTSIELHHP”, the “soluble fraction (log2)” value was -1.03.
With “HMKRYLFEEVLAFLKHNDGKSFNYKQLGAAMEIDNESDRFALLETLEELKHQGFVIETDIGKYAAKE”, the “soluble fraction (log2)” value was -0.868.
With “HMKSDELTKRRRLQIIEAAERSFRKRGFHATTLREIAAEFGMSVGHIYNYFSGKDAILEALIHQKIDD”, the “soluble fraction (log2)” value was -1.01.
The result for “HMKSKHENLIDGLLKMISSMKPHDRLTPERQLAEEWAVSRMTLRRALEVLQFQGKIYTVPSSGLFVAEPK” reads -2.89.
The same measure for “HMKSKPRVPFGSLVEMGILKPGSILFDPKGKIKTKVMVDGSIKYKETEGSIHKVAAQIMGTESYNGWTYW”: 0.488.
The same measure for “HMKSLDDVISKFRPTGSENKIDFRKRVISEIHAQGFFKIKGSVNHVAKALGVTRYTVYNYLDKLND”: -3.65; for “HMKSLLTHAEEFVRNNNGRWMLAETSSKESYSSKQNFYLRNNYSIISEIRDFYSVGDNLLVFGKFFT”: 0.201; for “HMKSNESAELGERMLNKALLALHTDSSKISDTQWQKLLRDYGAKNKQEILTDIGLGKRLNVMVAHQLMAMG”: -0.271.
For the sequence “HMKSNIGENIRQLREKREMSVERVARMLEVKPATVIGWESGRELPEPAELGLLAKLFDVTVEELN”, the “soluble fraction (log2)” value was -0.121.
On to “HMKSNKEKIYDFIQMHDTAEKEGGVSTTYIAQALSLQRTNVSSLLNALVEEGRIHKSNGRPVLYSIAG”, for which the “soluble fraction (log2)” value is -0.242.
The same measure for “HMKSPAQAAALKKLWAAIKQNEQGEVVEVLFHNRKLTDAGLVHLKGLANLQTLNLYDTKITGAGLVHL”: -0.0641; for “HMKSVLDDVAGLGPVRKKALLKAMGGFTRLRAASLDDILAVRAVPEEVAREVFAVLAQYNSVRNNDISE”: -1.08.
As to “HMKSVTAPLPGTVTQILVKVGDAVKAGDTVLMLEAMKMENSITAEAAGTVKAIRVEKGAQVQGGDVLIEM”, the “soluble fraction (log2)” value was 0.157.
The same measure for “HMKTAAKVLGESGGKPVTVQSGRYGPYVQLGTIRATLPKDLDQEAVTLDKALELIDAKAERSGK”: 0.00631.
The result for “HMKTDFEIDITVKASSLRVVASPGGDELVGTVTRGDRVTQLATPKDGWILIKMTDGRLGYVPESLLLFP” reads -1.87; that for “HMKTEIGQAMRKLRKAKKMTQDTLAEKLGVAPANISRYEKGQQGIEVDKLPTLADALGVSVPEFFAIASG”, 0.0367.
The result for “HMKTELAYDFHSRIRDARIREGLSQVDLAKRMNEKIAVIQKAENGIRPTDSLIAKFSKALSVELYVE” reads -2.12; that for “HMKTGIIYGVNGPVIYLKGDTGFKISEMVYVGPEKLVGEVIGLKKHMTTVQVFEETTGLKPGETVIGTGDA”, -0.378; that for “HMKTGTVQDFIAKYGMSSKSPSSWFNSLTQIQKAEAKALKAQSGLTWNEWYEKNIYNGDGSNL”, -0.0584.
For “HMKTKHISIAEGMSLYTRDRSPFYWGYLNIEGVIHKKSLKTDVVDEAIKLLSIWKNELLNSITK”, the “soluble fraction (log2)” value was -1.19.
The same measure for “HMKTKKYKGVYKDSKGKIYFQIELGVDPITGKRIQKKGRKNQQGLPFNSFKEAYEEILRLKHEFVNSTIN”: -3.35.
The same measure for “HMKTKTAPPDSIPPAWLKESATLRPDLNQAQIKASAEVFLDHHRAKGTTLADWRPAWRNWIRRERA”: 0.0178.
The result for “HMKTLDAFFDQARDAYKKLKKDGDIDNLKVLRNQLQTVRETQGDAVRKKSKEEYRRLVDIIDDIDGLLAAF” reads -0.123; that for “HMKTLSKEDIGFLSDEAVGEMRKAVANGEMLELRALIDQVGEKNPIVAEKLLTLVKQYDYENLNRVLE”, 0.102; that for “HMKTPAPRETILSLFRQTPDGFVSGERISDELGVSRTAVWKHIRNLRQAGYQIEAIPSRGYQLQQS”, -0.556.
“HMKTQFGTIVKQLRERKGMDQKQLGEIVGVSDKTVSSWEINRTEPKMGIVQQLADYFGVSTDYLIKG”: the “soluble fraction (log2)” value was found to be 0.306.
The result for “HMKTRQVTVRNGRIEIFDKRFSTERLVFTAANLPVLEREGEVFTAGIPDSRDFINLWARDGSFAGSVPRV” reads -1.96; that for “HMKTTSYAKLLRFLRTERDLSQITVAKQLGLSRASYLALEHGSRELSLSEAVKVTTLYGIRIDDLIVNH”, -3.35.
On to “HMKTTVEVSPIARPGAVASGSVKFGSGVTAEWMLDQYGRLGLDKPTGKPTEQDIKEFQIELQKAL”, for which the “soluble fraction (log2)” value stood at 0.0637.
The same measure for “HMKVDLSEEEKTILELLKKESPQELETIKAASTLSNKKWDKAIKGLRKHNLAKVNKTDDGLFVELE”: 0.234.
